Assay results taken from US20150266922A1.

Experiments:
[1] = target: Dipeptidyl peptidase 9 (DPP9), recombinant wild-type (human) (UniProt Q86TI2); assay: cell-based or functional assay
[2] = target: Dipeptidyl peptidase 9 (DPP9), recombinant wild-type (human) (UniProt Q86TI2); assay: enzyme kinetics, GP-AMC hydrolysis by 25 nM recombinant DPP9 with 0, 5 or 20 µM peptide
[3] = target: Dipeptidyl peptidase 8 (DPP8), recombinant (human) (UniProt Q6V1X1); assay: ratio of Ki values, DPP8 against DPP9
[4] = target: Dipeptidyl peptidase 9 (DPP9), recombinant wild-type (human) (UniProt Q86TI2); assay: ratio of Ki values for DPP9, reference EIL peptide
[5] = target: Dipeptidyl peptidase 8 (DPP8), recombinant (human) (UniProt Q6V1X1); assay: enzyme kinetics, GP-AMC hydrolysis by recombinant DPP8
[6] = target: Dipeptidyl peptidase 9 (DPP9), recombinant wild-type (human) (UniProt Q86TI2); assay: enzyme kinetics, GP-AMC hydrolysis by recombinant DPP9
[7] = target: Dipeptidyl peptidase 8 (DPP8), recombinant (human) (UniProt Q6V1X1); assay: cell-based or functional assay

Dipeptidyl peptidase 8 (DPP8), recombinant (human), sequence (Q6V1X1 whole entry, form in doubt): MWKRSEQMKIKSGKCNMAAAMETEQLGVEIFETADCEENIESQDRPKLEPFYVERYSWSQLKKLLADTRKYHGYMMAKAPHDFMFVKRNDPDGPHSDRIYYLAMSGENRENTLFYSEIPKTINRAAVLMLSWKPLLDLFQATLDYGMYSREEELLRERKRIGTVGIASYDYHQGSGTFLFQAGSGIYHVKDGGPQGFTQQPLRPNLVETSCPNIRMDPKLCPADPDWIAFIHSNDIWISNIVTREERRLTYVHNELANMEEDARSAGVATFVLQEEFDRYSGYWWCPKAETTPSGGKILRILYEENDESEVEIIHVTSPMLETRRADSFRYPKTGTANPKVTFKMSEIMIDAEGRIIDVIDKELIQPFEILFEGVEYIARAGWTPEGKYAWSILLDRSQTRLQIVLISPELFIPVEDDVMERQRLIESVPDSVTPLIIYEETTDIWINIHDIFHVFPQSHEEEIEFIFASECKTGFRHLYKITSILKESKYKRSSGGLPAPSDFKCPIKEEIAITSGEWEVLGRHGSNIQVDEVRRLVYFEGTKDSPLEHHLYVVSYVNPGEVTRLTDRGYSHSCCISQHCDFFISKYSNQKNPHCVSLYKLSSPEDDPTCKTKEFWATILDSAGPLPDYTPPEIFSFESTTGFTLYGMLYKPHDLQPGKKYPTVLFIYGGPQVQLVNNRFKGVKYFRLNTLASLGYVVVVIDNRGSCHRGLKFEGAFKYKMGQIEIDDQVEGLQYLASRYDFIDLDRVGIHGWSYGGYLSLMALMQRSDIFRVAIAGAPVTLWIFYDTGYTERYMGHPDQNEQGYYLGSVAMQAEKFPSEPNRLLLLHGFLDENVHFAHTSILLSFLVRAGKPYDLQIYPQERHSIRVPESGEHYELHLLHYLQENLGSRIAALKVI
Dipeptidyl peptidase 9 (DPP9), recombinant wild-type (human), sequence (Q86TI2 other isoform, or with tags, fused parts or gaps limits assumed, form in doubt): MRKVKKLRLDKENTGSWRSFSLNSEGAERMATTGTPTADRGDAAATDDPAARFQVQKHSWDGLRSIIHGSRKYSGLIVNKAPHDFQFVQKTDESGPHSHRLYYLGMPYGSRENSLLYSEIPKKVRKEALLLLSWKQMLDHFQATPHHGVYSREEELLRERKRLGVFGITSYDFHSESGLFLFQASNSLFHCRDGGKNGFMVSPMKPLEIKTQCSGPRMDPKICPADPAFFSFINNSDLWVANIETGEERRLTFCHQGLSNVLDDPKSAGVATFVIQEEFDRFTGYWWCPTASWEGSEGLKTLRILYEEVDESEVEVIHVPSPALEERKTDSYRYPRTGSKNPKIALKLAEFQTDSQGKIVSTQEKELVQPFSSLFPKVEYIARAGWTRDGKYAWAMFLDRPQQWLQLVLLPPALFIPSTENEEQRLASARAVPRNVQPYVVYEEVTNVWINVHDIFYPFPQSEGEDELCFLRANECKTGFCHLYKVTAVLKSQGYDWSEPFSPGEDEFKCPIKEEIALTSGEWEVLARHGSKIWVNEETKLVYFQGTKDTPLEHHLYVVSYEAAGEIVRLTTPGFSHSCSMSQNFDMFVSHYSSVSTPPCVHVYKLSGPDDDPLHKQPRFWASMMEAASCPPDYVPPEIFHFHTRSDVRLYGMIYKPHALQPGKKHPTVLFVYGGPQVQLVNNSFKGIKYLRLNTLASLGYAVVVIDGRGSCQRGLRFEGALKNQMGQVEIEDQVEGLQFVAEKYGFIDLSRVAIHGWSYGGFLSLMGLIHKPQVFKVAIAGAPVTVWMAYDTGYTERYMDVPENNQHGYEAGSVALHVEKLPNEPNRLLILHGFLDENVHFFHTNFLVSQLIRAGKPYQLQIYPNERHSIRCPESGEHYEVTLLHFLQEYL

% DPP9 activity (Mean), 10 µM peptide [1]	Ki [2]	fold lower affinity compared to DPP9 [3]	fold increased efficiency compared to the EIL peptide [4]	Ki [5]	Ki [6]	AMC release from GP-AMC in the unbound fraction (depleted lysates) [7]	AMC release from GP-AMC in the unbound fraction (depleted lysates) [1]	Substance
24.1%	2000 nM	–	–	–	–	–	–	SLRFLFEG (SEQ ID NO: 37) (peptide)
10.9%	–	9 fold	18.5 fold	3600 nM	400 nM	–	–	SLRFLYEG (SEQ ID NO: 38) (peptide)
–	–	–	–	–	–	40%	40%	SUMO1 (from UniProt P63165 1-97)
